Results: patent US20230416363A1 (KADMON, published 2023)

Legend:
hPD-1-Fc [1] = molecular target: T1, hPD-1-Fc (human, UniProt Q15116 25-167); assay: SPR, Exp. 1
T1 construct: domain: IgV domain; also called human PD-1-Fc; not shown: human IgG1 Fc

hPD-1-his [2] = molecular target: T2, hPD-1-his (human, UniProt Q15116 25-167); assay: SPR, Exp. 1
T2 construct: domain: IgV domain; monomer in solution; biotin-labelled where captured by streptavidin; also called biotin-hPD-1-his

hPD-1-Fc [3] = molecular target: T1, hPD-1-Fc; assay: SPR, Exp. 2
hPD-1-his [4] = molecular target: T2, hPD-1-his; assay: SPR, Exp. 2
hPD-1-Fc [5] = molecular target: T1, hPD-1-Fc; assay: SPR, Exp. 3
hPD-1-his [6] = molecular target: T2, hPD-1-his; assay: SPR, Exp. 3
hPD-1-his [7] = molecular target: T2, hPD-1-his; assay: SPR, Exp. 4
hPD-1-Fc [8] = molecular target: T1, hPD-1-Fc; assay: ELISA, PD-1-Fc coated
hPD-1-Fc [9] = molecular target: T1, hPD-1-Fc; assay: ELISA, hPD-1-Fc coated
[10] = molecular target: T3, human PD-1 expressed on cells (human, UniProt Q15116 25-288); assay: cell-based or functional assay
hPD-1-his [11] = molecular target: T2, hPD-1-his; assay: ELISA, PD-1-his on anti-his
hPD-1-his [12] = molecular target: T2, hPD-1-his; assay: ELISA, PD-1-his on anti-his; remark: listed apart in the source
hPD-1-Fc [13] = molecular target: T1, hPD-1-Fc; assay: SPR, range over experiments
hPD-1-Fc [14] = molecular target: T1, hPD-1-Fc; assay: blocking ELISA, PD-1 to PD-L1
hPD-1-Fc [15] = molecular target: T1, hPD-1-Fc; assay: blocking ELISA, PD-1 to PD-L2
[16] = molecular target: T3, human PD-1 expressed on cells; assay: flow cytometry, hPD1-293 cells
hPD-1-his [17] = molecular target: T2, hPD-1-his; assay: ELISA, PD-1-his on streptavidin
hPD-1-Fc [18] = molecular target: T1, hPD-1-Fc; assay: blocking ELISA, hPD-1 to hPD-L1; parameters: unit not given here
[19] = molecular target: T3, human PD-1 expressed on cells; assay: flow cytometry, hPD-1-293 cells
[20] = molecular target: T3, human PD-1 expressed on cells; assay: flow cytometry, hPD1-Jurkat cells
[21] = molecular target: T3, human PD-1 expressed on cells; assay: flow cytometry, hPD-1-Jurkat cells
hPD-1-Fc [22] = molecular target: T1, hPD-1-Fc; assay: SPR Biacore T200, PD-1-Fc immobilised
hPD-1-his [23] = molecular target: T2, hPD-1-his; assay: SPR Biacore T200, PD-1-his immobilised
hPD-1-his [24] = molecular target: T2, hPD-1-his; assay: ELISA, biotin-PD-1-his on streptavidin
[25] = molecular target: T3, human PD-1 expressed on cells; assay: flow cytometry, activated PBMC donor FA
[26] = molecular target: T3, human PD-1 expressed on cells; assay: flow cytometry, activated PBMC donor two
[27] = molecular target: T3, human PD-1 expressed on cells; assay: flow cytometry, SEB-activated PBMC donor
[28] = molecular target: T3, human PD-1 expressed on cells; assay: flow cytometry, SEB-activated PBMC donor two
hPD-1-his [29] = molecular target: T2, hPD-1-his; assay: SPR (Biacore), hPD1his immobilised; lower end of the printed KD range over the experiments
hPD-1-his [30] = molecular target: T2, hPD-1-his; assay: SPR (Biacore), hPD1his immobilised; upper end of the printed KD range over the experiments
[31] = molecular target: T4, mPD1 (soluble, ELISA of Examples 20 and 24) (mouse, UniProt Q02242 25-167, limits assumed); assay: ELISA, mPD1
T4 construct: also called Biotin-mPD1
T4 sequence (looked up): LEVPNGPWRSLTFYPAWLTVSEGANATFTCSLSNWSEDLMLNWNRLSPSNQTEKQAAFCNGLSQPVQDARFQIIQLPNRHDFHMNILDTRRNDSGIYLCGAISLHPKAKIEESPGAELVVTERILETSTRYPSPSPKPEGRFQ

mPD-1-Fc [32] = molecular target: T5, mPD-1-Fc (mouse; human, UniProt Q02242 25-167, limits assumed); assay: ELISA, mPD-1-Fc
T5 construct: domain: IgV domain; not shown: human IgG1 Fc
T5 sequence (looked up): T4 sequence (looked up)

mPD-1-Fc [33] = molecular target: T5, mPD-1-Fc; assay: SPR Biacore, mPD1-Fc
mPD-1-his [34] = molecular target: T6, mPD-1-his (mouse, UniProt Q02242 25-167, limits assumed); assay: SPR Biacore, mPD1-his
T6 construct: domain: IgV domain
T6 sequence: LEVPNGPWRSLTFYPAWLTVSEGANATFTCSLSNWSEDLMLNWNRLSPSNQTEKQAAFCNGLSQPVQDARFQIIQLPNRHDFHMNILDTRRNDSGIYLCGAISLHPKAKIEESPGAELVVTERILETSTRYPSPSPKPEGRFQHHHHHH

[35] = molecular target: T7, mouse PD-1 expressed on cells (mouse, UniProt Q02242 25-288); assay: cell-based or functional assay
T7 sequence (looked up): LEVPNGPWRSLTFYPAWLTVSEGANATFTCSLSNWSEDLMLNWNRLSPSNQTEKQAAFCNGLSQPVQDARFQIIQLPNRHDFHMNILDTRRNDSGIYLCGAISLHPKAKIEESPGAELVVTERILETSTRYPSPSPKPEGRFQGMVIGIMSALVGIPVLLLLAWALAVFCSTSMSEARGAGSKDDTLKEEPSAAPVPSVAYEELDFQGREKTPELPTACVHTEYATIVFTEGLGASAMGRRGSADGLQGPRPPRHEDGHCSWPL

[36] = molecular target: T4, mPD1 (soluble, ELISA of Examples 20 and …); assay: blocking ELISA, mPD1 to mPDL1
mPD-1-Fc [37] = molecular target: T5, mPD-1-Fc; assay: blocking ELISA, mPD-1 to PD-L1
[38] = molecular target: T7, mouse PD-1 expressed on cells; assay: flow cytometry, mPD1-293 cells
[39] = molecular target: T7, mouse PD-1 expressed on cells; assay: flow cytometry, mPD1-eff cells
mPD-1-Fc [40] = molecular target: T5, mPD-1-Fc; assay: ELISA, mPD-1-Fc on streptavidin
[41] = molecular target: T7, mouse PD-1 expressed on cells; assay: flow cytometry, mPD-1-293 cells
mPD-1-his [42] = molecular target: T6, mPD-1-his; assay: ELISA, mPD-1-his on streptavidin
[43] = molecular target: T4, mPD1 (soluble, ELISA of Examples 20 and …); assay: ELISA, biotin-mPD1 on streptavidin
[44] = molecular target: hPD1 (soluble, ELISA of Example 20) (human, UniProt Q15116 25-167, limits assumed); assay: ELISA, hPD1; direct binding ELISA on hPD1 (EC50 row)
Sequence of hPD1 (soluble, ELISA of Example 20) (Q15116 25-167 limits assumed): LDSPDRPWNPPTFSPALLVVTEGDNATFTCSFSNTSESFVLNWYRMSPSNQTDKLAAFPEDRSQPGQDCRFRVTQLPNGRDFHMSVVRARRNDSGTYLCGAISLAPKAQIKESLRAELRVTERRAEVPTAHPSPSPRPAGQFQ

T1 sequence (Q15116 25-167 limits assumed): as above
T2 sequence (Q15116 other isoform, or with tags, fused parts or gaps limits assumed): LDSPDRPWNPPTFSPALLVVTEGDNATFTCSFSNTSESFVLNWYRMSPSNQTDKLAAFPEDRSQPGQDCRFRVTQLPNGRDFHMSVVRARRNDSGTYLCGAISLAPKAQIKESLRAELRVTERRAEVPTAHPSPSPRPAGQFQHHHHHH
T3 sequence (Q15116 25-288): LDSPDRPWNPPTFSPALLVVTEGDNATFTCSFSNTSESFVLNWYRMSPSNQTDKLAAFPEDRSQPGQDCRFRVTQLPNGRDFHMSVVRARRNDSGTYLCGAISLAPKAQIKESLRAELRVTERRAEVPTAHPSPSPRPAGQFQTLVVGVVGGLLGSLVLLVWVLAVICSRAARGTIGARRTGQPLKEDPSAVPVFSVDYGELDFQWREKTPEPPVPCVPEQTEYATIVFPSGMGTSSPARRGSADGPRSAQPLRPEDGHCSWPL

B1: 38A6 (antibody, V domains shown)
VH: EVQLLESGGGLVQPGGSLRLSCAASGFTFSSYWMSWVRQAPGKGLEWVSAISGSGGSTYYADSVKGRFTISRDNSKNTLYLQMNSLRAEDTAVYYCASSPLQWVDVWGQGTTVTVSS
VL: DIQMTQSPSSLSASVGDRVTITCRASQDISRWLGWYQQKPGKAPKLLIYAASTLQSGVPSRFSGSGSGTDFTLTISSLQPEDFATYYCQQANSFPFTFGPGTKLEIK
notes: also called 780_46
- Kd (hPD-1-Fc [1]): < 0.188 nM
- Kd (hPD-1-his [2]): 2.3 nM
- Kd (hPD-1-Fc [3]): < 0.136 nM
- Kd (hPD-1-his [4]): < 0.586 nM
- Kd (hPD-1-Fc [5]): < 0.301 nM
- Kd (hPD-1-his [6]): < 0.574 nM
- Kd (hPD-1-his [7]): < 0.09 nM
- EC50 (hPD-1-Fc [8]): 0.079 nM
- OD at 10 nM (hPD-1-Fc [9]): 0.993 OD
- EC50, Promega blockade bioassay [10]: 0.164 µg/mL
- Fold induction [10]: 5.66 fold
- OD at 10 nM (hPD-1-his [11]): 0.576 OD
- EC50 (hPD-1-his [12]): 0.089 nM
- Kd (hPD-1-Fc [13]): 0.14 to 0.3 nM
- IC50 (hPD-1-Fc [14]): ~2.14 nM
- Inhibition % at 50 nM (hPD-1-Fc [14]): 92.2%
- Inhibition, % at 5.56 nM (hPD-1-Fc [14]): 92%
- IC50 (hPD-1-Fc [15]): 2.39 nM
- Inhibition, % at 3.7 nM (hPD-1-Fc [15]): 90.4%
- Inhibition, % at 100 nM (hPD-1-Fc [15]): 94.8%
- EC50 [16]: 0.15 nM
- MFI at 5 nM [16]: 110 MFI
- OD at 10 nM (hPD-1-his [17]): 0.948 OD
- Inhibition at 50 nM (hPD-1-Fc [18]): 91.7
- MFI, 5 nM [19]: 227 MFI
- EC50 [20]: 0.21 nM
- MFI at 5 nM [20]: 89.5 MFI
- MFI, 5 nM [21]: 59.9 MFI
- Kd (hPD-1-Fc [22]): 0.477 nM
- Kd (hPD-1-his [23]): 1.18 nM
- EC50 (hPD-1-his [24]): 0.084 nM
- EC50 [25]: 0.21 nM
- MFI at 25 nM [25]: 14.5 MFI
- EC50 [26]: 0.17 nM
- MFI at 25 nM [26]: 15.9 MFI
- MFI, 5 nM [27]: 65.2 MFI
- MFI, 5 nM [28]: 54.7 MFI
- Kd (hPD-1-his [29]): ≥ 0.9 nM
- Kd (hPD-1-his [30]): ≤ 2.3 nM

B2: R3A9 (antibody, V domains shown)
VH: QVQLVQSGAEVKKPGASVKVSCKASGHTFTSYYIHWVRQAPGQGLEWMGIINPSGGSTSYAQKFQGRVTMTRDTSTSTVYMELSSLRSEDTAVYYCARDRAYGGAGDYWGQGTLVTVSS
VL: DIQMTQSPSSLSASVGDRVTITCRASQSVGTWLAWYQQKPGKAPKLLIYSASTLQSGVPSRFSGSGSGTDFTLTISSLQPEDFATYYCQQSYSAPLTFGGGTKVEIK
notes: also called 7115A; mPD1 parental (R3A9)
- EC50 [31]: 1.36 nM
- EC50 (mPD-1-Fc [32]): 14.6 nM
- Kd (mPD-1-Fc [33]): 12.1 nM
- koff (mPD-1-Fc [33]): 0.0014 s⁻¹
- kon (mPD-1-Fc [33]): 116000 M⁻¹ s⁻¹
- Kd (mPD-1-his [34]): 15.7 nM
- koff (mPD-1-his [34]): 0.00641 s⁻¹
- kon (mPD-1-his [34]): 409000 M⁻¹ s⁻¹
- IC 50, Promega assay [35]: 1.62 µg/mL
- IC50 [36]: 0.722 nM
- IC50 (mPD-1-Fc [37]): 0.441 nM
- EC50 [38]: 0.314 nM
- EC50 [39]: 0.645 nM
- EC50 (mPD-1-Fc [40]): 0.156 nM
- EC50 [41]: 0.566 nM
- EC50 (mPD-1-his [42]): 1.61 nM
- EC50 [43]: 0.462 nM
- EC50 [44]: 3.25 nM
